Source: article PMC7352312

Tests used:
[1] = target: AcSpN A71R mutant (Nephila antipodiana) (Nephila antipodiana); assay: AUC; sedimentation velocity, 1.5 mg/mL protein, 20 mM phosphate, 300 mM NaCl, pH 7.0-8.0 (mutants and MaSpN at pH 7.0), 24 °C; self-association
[2] = target: AcSpN K103E mutant (Nephila antipodiana) (Nephila antipodiana); assay: AUC; sedimentation velocity, 1.5 mg/mL protein, 20 mM phosphate, 0 mM NaCl, pH 7.0-8.0 (mutants and MaSpN at pH 7.0), 24 °C; self-association
[3] = target: AcSpN K122E mutant (Nephila antipodiana) (Nephila antipodiana); assay: AUC; sedimentation velocity, 1.5 mg/mL protein, 20 mM phosphate, 150 mM NaCl, pH ≥ 7.0 (mutants and MaSpN at pH 7.0), 24 °C; self-association
[4] = target: AcSpN R107E mutant (Nephila antipodiana) (Nephila antipodiana); assay: AUC; sedimentation velocity, 1.5 mg/mL protein, 20 mM phosphate, 0 mM NaCl, pH 7.0-8.0 (mutants and MaSpN at pH 7.0), 24 °C; self-association
[5] = target: N-terminal domain of aciniform silk protein (AcSpN) from Nephila antipodiana, construct S15-E153 (renumbered S4-E142) (Nephila antipodiana); assay: AUC; sedimentation velocity, 1.5 mg/mL protein, 20 mM phosphate, 150 mM NaCl, pH ≥ 7.0 (mutants and MaSpN at pH 7.0), 24 °C; self-association
[6] = target: N-terminal domain of aciniform silk protein (AcSpN) from Nephila antipodiana, construct S15-E153 (renumbered S4-E142) (Nephila antipodiana); assay: AUC; sedimentation velocity, 1.5 mg/mL protein, 20 mM phosphate, 150 mM NaCl, pH < 7.0, 24 °C; self-association
[7] = target: N-terminal domain of aciniform silk protein (AcSpN) from Nephila antipodiana, construct S15-E153 (renumbered S4-E142) (Nephila antipodiana); assay: AUC; sedimentation velocity, 1.5 mg/mL protein, 20 mM phosphate, 300 mM NaCl, pH 5.85 and 5.50, 24 °C; self-association
[8] = target: N-terminal domain of major ampullate silk protein (MaSpN) from Nephila antipodiana, construct T1-E137 (Nephila antipodiana); assay: AUC; sedimentation velocity, 1.5 mg/mL protein, 20 mM phosphate, 0 mM NaCl, pH 7.0-8.0 (mutants and MaSpN at pH 7.0), 24 °C; self-association
[9] = target: N-terminal domain of major ampullate silk protein (MaSpN) from Nephila antipodiana, construct T1-E137 (Nephila antipodiana); assay: SEC; Superdex 200 Increase 10/300 GL, 20 mM sodium phosphate pH 7.0, 50 mM NaCl, ~600 µM protein injected; self-association

“AcSpN A71R mutant (Nephila antipodiana) (domain or fragment)” showed a percent in a dimeric form [1] of 10%.

Work on “AcSpN K103E mutant (Nephila antipodiana) (domain or fragment)” yielded a stoichiometry N [2] of 2.

In the case of “AcSpN K122E mutant (Nephila antipodiana) (domain or fragment)”, the stoichiometry N [3] is reported as 2.

For “AcSpN R107E mutant (Nephila antipodiana) (domain or fragment)”, the stoichiometry N [4] was 2.

“N-terminal domain of aciniform silk protein (AcSpN) from Nephila antipodiana, construct S15-E153 (renumbered S4-E142) (domain or fragment)” showed a stoichiometry N [5] of 2, a stoichiometry N [6] of 2 and a stoichiometry N [7] of 2.

Work on “N-terminal domain of major ampullate silk protein (MaSpN) from Nephila antipodiana, construct T1-E137 (domain or fragment)” yielded a stoichiometry N [8] of 2 and a stoichiometry N [9] of 2.
